This is an account of results in patent US20210079060A1 (ALETA BIOTHERAPEUTICS, published 2021).

“And” between values parts separate entries of the source, which are not always exact repeats. Equal entries are not always repeated.

Assay [1] has as its target T1, CD20 (UniProt P11836 1-297, limits assumed).
T1 construct: whole, on cells; also called CD20 positive HEK293 cells
T1 sequence (looked up): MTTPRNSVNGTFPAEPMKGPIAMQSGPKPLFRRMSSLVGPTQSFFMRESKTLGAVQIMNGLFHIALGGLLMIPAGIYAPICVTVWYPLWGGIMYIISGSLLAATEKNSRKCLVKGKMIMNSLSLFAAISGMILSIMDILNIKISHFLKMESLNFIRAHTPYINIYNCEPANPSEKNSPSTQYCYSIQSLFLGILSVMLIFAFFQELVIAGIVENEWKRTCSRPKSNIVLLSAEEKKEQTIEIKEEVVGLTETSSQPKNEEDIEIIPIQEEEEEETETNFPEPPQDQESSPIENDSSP
The assay is described as follows: binding to CD20 positive HEK293 cells (method of the fit not stated).

Assay [2] addresses T1, CD20. The assay is described as follows: FACS on CD20 positive HEK293 cells, detected with FMC63-PE.
For assay [3], the target named is T1, CD20. The experiment in a line: binding to CD20 positive cells; unit as printed in the table, but the x-axis of the curve is in ng/ml and the half-maximum lies near 20 on it.
The target of assay [4] is T1, CD20. The experiment in a line: binding to CD20 positive cells; unit as printed in the table; it follows from 22.34 ug/ml and MW 210.8 kDa, while the curve's axis is in ng/ml.

B1: Rituximab-CD19 construct (#377/378) (antibody, human IgG1, kappa)
light: QIVLSQSPAILSASPGEKVTMTCRASSSVSYIHWFQQKPGSSPKPWIYATSNLASGVPVRFSGSGSGTSYSLTISRVEAEDAATYYCQQWTSNPPTFGGGTKLEIKRTVAAPSVFIFPPSDEQLKSGTASVVCLLNNFYPREAKVQWKVDNALQSGNSQESVTEQDSKDSTYSLSSTLTLSKADYEKHKVYACEVTHQGLSSPVTKSFNRGECGGGGSGGGGSGGGGSGGGGSPEEPLVVKVEEGDTAALWCLKGTSDGPTQQLTWSRESPLKPFLKYSLGVPGLGVHVRPDAISVVIRNVSQQMGGFYLCQPGPPSEKAWQPGWTVNVEGSGELFRWNVSDLGGLGCGLKNRSSEGPSSPSGKLMSPKLYVWAKDRPEIWEGEPPCLPPRDSLNQSLSRDLTVAPGSTLWLSCGVPPDSVSRGPLSWTHVHPKGPKSLLSLELKDDRPARDMWVMGTSLMLPRATAQDAGKWYCHRGNLTMSFHLEITARPSRHHHHHH
heavy: not shown
notes: also called Rituximab-based construct; wild type Rituximab-CD19 construct
Usually Kd stands for the concentration at which binding is half-saturated. What is called EC50 is the concentration at which the effect is half-maximal. In turn, B1 had a Kd in the assay with CD20 [1] of around 0.016 nM. Moreover, the EC50 with CD20 [2] was 0.00343 µg/mL and 0.0163 nM; with CD20 [3] it was 22.3 µg/mL; in the assay with CD20 [4] it was 106 nM.
